From the nanobody polyreactivity screen of Harvey et al. (2022)

Experiment: yeast display, Sf9 membrane polyspecificity reagent, FACS + sequencing; frameworks hold sequencing errors
Outline: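 Nanobodies came from a synthetic yeast display library in Saccharomyces cerevisiae BJ5465, induced with galactose for 36–48 hours and stained for 1 hour at 4 °C with 10% biotinylated, detergent-solubilized Sf9 membrane reagent. Cells were enriched on streptavidin microbeads and then FACS-sorted, with low and high (top ~1%) gates set on anti-HA fluorescence for expression and streptavidin fluorescence for reagent binding. Each polyreactivity label reflects the gate a clone came from. Genes were amplified by colony PCR, sequenced by MiSeq 2 × 250 and filtered by CDR length.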

Sequence	polyreactivity (PSR sort gate)
QVQLVESGGGLVQAGGSLRLSCAASGSIFVAYAKGWYRPAPGKERELVAAISSSGGTTYYADSVKGRFTISRDNAKITVYLQMNSLKPEDSAVYYCAARDYKYYYWGQGTQVTVSS	high polyreactivity
QVQLVESGGGLVQAGGSLRLSCAASGSIFVDNAMGWYRQAPGKERELVAVITLRSGSTNYADSVKGRFTISRDNAKNTVYLQMNSLKPEDTAVYYCAADDTYHDYQRDTDDDYWGQGTQVTVSS	low polyreactivity
QVQLVESGGGLVQAGGSLRLSCAASGSIFVDYTMGWYLQAPGKERELVARITSGGSTYYADSVKGLFTISRDNAKNTVYLQMIRLNPEDTAVYYCAARPYYRYRNSWREQYYYWGQGTQVSVSS	high polyreactivity
QVQLVESGGGLVQAGGSLRLSCAASGSIFVEYAMGWYRQAPGKERELVAGISSGGITSYADSVKGRFTISRDNAKNTVYLQMNSLKPEDTAVYYCATDPYKWFFSSYYLLQEVEYWGQGTQVTVSS	low polyreactivity
QVQLVESGGGLVQAGGSLRLSCAASGSIFVFYARGWSRQAPGKERELVAAITSGGRTYYADSVKGRFTISRDNAKNTVYLQMNSLKPEDTAVYYCNAVRFYSIGLGQDDYWGQGTQVTVSS	low polyreactivity
QVQLVESGGGLVQAGGSLRLSCAASGSIFVGNAMGWYRQAPGKEREFVASISWDGTTYYADSVKGRFTISRDNAKNTVYLQMNSLKPEDTAVYYCAADVSTYGAQATEGTDLEYDYWGQGTLVTVSS	low polyreactivity
QVQLVESGGGLVQAGGSLRLSCAASGSIFVGNAMGWYRQAPGKERELVAAISWSGGSTYYADSVKGRFTISRDNAKNTVYLQMNSLKPEDTAVYYCATQLSIRMDYWGQGTQVTVSS	high polyreactivity
QVQLVESGGGLVQAGGSLRLSCAASGSIFVGNAMGWYRQAPVKERELVADINVTGGTTYYADSVKGRFTISRDNAKNTVYLQMNSLKPEDTAVYYCAARQSIFYSWTGVEYYYWGQGTQVTVSS	low polyreactivity
QVQLVESGGGLVQAGGSLRLSCAASGSIFVGNTMGWYRQAPGKERELVAAITWSGGRTYYADSVKGRFTISRDNAKNNVYLQMHSLKPEDTAVYYLKALAYYIRYYYWGKGTQVTVSS	high polyreactivity
QVQLVESGGGLVQAGGSLRLSCAASGSIFVGYAMGWYRQAPGKERELVAAISKRGGGTYYADSVKGRFTISRDNAKNTVYLQMNSLKPEDTAVYYCNAVTVHLDVASGYYYWGQGTQVTVSS	high polyreactivity
QVQLVESGGGLVQAGGSLRLSCAASGSIFVGYAMGWYRQAPGKERELVAAISQRGGITYYADSVKGRFTISRDNAKNTVYLQMNSLKPEDTAVYYCAAPRYLSYVRRYDYWGQGTQVTVSS	high polyreactivity
QVQLVESGGGLVQAGGSLRLSCAASGSIFVGYAMGWYRQAPGKERELVAAISRSGGTTYYADSVKGRFTISRDTAKNTVYLQMNSLKPEDTAVYYCAAERWAYYRSGLWWPYDYWGQGTQVTVSS	high polyreactivity
QVQLVESGGGLVQAGGSLRLSCAASGSIFVGYAMGWYRQAPGKERELVAAITSGGNTNYADSVKGRFTISRDNAKNTVYLQMNSLKPEDTAVYYCNKDQGDGLRSQLGTDATYDYWGQGTQVTVSS	low polyreactivity
QVQLVESGGGLVQAGGSLRLSCAASGSIFVGYAMGWYRQAPGKVRELVAAISRRGGSTYYADSVKGRFTISRDNAKNTLYLQMNSLKPEDTAVYYCAARQSTSATSGYYSWGQGTQVTVSS	high polyreactivity
QVQLVESGGGLVQAGGSLRLSCAASGSIFVGYAMGWYRQARGKERELVAAITGSGTRTYYADSVKGRFTISRDNAKNTVYLQMNSLKPEDTAVYYCAAVTYHGNPSEYYPDTVGFYYWGQGTQVTVSS	low polyreactivity
QVQLVESGGGLVQAGGSLRLSCAASGSIFVGYGAMGWYRQAPGKERELVAAITSGNSTYYADSVKGRFTISRDNAKNTVYLQMNSLKPEDTAVYYCAARGFLKYVTEFDYWGQGTQVTVSS	low polyreactivity
QVQLVESGGGLVQAGGSLRLSCAASGSIFVHYAMGWYRQAPGKERELVAAITSSGGRTYYADSVKGRFTISRDNAKNTVYLQMNSLKPEDTAVYYCNAAKYLYRHGFLSAGDMYYWGQGTQVTVSS	high polyreactivity
QVQLVESGGGLVQAGGSLRLSCAASGSIFVHYDMGWYRPAPGKERELVADIDYSGGSTYYADSVKGRFTISRDNAKNTVYLQMNSLKPEDTAVYYCAAERRRWGLDYYYWGQGTQVTVSS	high polyreactivity
QVQLVESGGGLVQAGGSLRLSCAASGSIFVKNAMGWYRQAPGKERELVARSSFSGGSTYYADSVKGRFTISRDNAKNTVYLQMNSLKPEDTAVYYCAVDGGEFSSYGYWGQGTQVTVSS	low polyreactivity
QVQLVESGGGLVQAGGSLRLSCAASGSIFVKNVMGWYRQAPGKERELVAAISSSGGRTYYADSVKGRFTISRDNAKNTVYLQMNSLKPEDTAVYYCNKAYPGRRDGSYDYWGQGTQVTVSS	high polyreactivity
QVQLVESGGGLVQAGGSLRLSCAASGSIFVKYAMGWYRQAPGKERELVAAISRNGGSTYYADSVKGRFTISRDNAKNTVYLQMNSLKPEDTAVYYCNKVRPGWTYEYGYWGQGTQVTVSS	high polyreactivity
QVQLVESGGGLVQAGGSLRLSCAASGSIFVKYAMGWYRQAPGKERELVAAITTGVGSTYYADSVKGRFTISRDNAKNTVYLQMNSLKPEDTAVYYCAAETIDYWYILEYDYWGQGTQVTVSS	low polyreactivity

Sequence	polyreactivity (PSR sort gate)
QVQLVESGGGLVQAGGSLRLSCAASGSIFVLNAMGWYRQAPGKERELVAAITGTGDRTYYADSVKGRFTISRDNAKNTVYLQMNSLKPEDTAVYYCAATVGDAYYEYDYWGQGTQVTVSS	low polyreactivity
QVQLVESGGGLVQAGGSLRLSCAASGSIFVLYAMGWYRQAPGKERELVAAINYDGASTYYADSVKGRFTNSRDNAKNTVYLQMISLKREDTAVYYCAASWQFNIDVQLYLFEYWGQGTQVTVSS	low polyreactivity
QVQLVESGGGLVQAGGSLRLSCAASGSIFVNNAMGWYRQAPGKERELVAAIRRGSSTNYADSVKGRFTISRDNAKNTVYLQMNSLKPEDTAVYYCAADHVDDEAQNYDYWGQGTQVTVSS	low polyreactivity
QVQLVESGGGLVQAGGSLRLSCAASGSIFVPYAMGWYRQAPGKERELVAAINSGGGTDYADSVKGRFTISRDNAKNTVYLQMNSLKPEDTAVYYCAKSRVAYRGWDHKYYIYDYWGQGTQVTVSS	low polyreactivity
QVQLVESGGGLVQAGGSLRLSCAASGSIFVPYAMGWYRQAPGKERELVAAISSRGGRTYYADSVKGRFTISRDNAKNTVYLQMNSLKPEDTAVYYCNKTAGSHIPRLEYWGQGTQVTVSS	low polyreactivity
QVQLVESGGGLVQAGGSLRLSCAASGSIFVPYAMGWYRQAPGKERELVAAISSSTASTYYADSVKARFTISRDYAKNTVYFQMNCLKPEDTAVYYCNAEQWDYGVRVAHYDYWGQGTQVTVSS	low polyreactivity
QVQLVESGGGLVQAGGSLRLSCAASGSIFVRNAMGWYRQAPGKERELVAAISRSGSSTYYADSVKGRFTISRDIAKNTVYLQMNSLKPEDTAVYYCAARRRYKMDYWGQGTQVTVSS	high polyreactivity
QVQLVESGGGLVQAGGSLRLSCAASGSIFVRYAMGWYRQAPGKERELVASIRSRGDSTYYADSVKGRFTISRDNAKNTVYLQMNSLKPEDTAVYYCAVQRSYVGPRQYNYWGQGTQVTVSS	high polyreactivity
QVQLVESGGGLVQAGGSLRLSCAASGSIFVSNAMGWYRQAPGKEREMVAAISQSGGSTYYADSVKGLFTISRDNAKNTVYLQMNSLKPEDTEVYYCATPIRSGFRIYEYWGQGTQVTVSS	low polyreactivity
QVQLVESGGGLVQAGGSLRLSCAASGSIFVSYAMGWYRQAPGKERELVAAITGRTGSTYYADSVKGRFTISRDNAKNTVYLQMNSLKPEDTAVYYCAARHKQHNRYDYWGHGTQVTVSS	low polyreactivity
QVQLVESGGGLVQAGGSLRLSCAASGSIFVSYAMGWYRQAPGKERELVAAITGSGASTYYADSVKGRFTISRDNAKNTVYLQMNSLKPEDTAVYFCAAAPGKGPGYDYWGQGTQVTVSS	low polyreactivity
QVQLVESGGGLVQAGGSLRLSCAASGSIFVSYAMGWYRQAPGKERELVAAITRSGGSTYYADSVKGRFTISRDNAKNTLYLQMNSLKPEDTAVYYCAARSYLGAYRRYYWGQGTQVTVSS	high polyreactivity
QVQLVESGGGLVQAGGSLRLSCAASGSIFVSYAMGWYRQAPGKERELVAAITRSGGSTYYADSVKGRFTISRDNAKNTVYLQMNSLKPEDTAVYYCAARSYLGAYRRYYWGQGTQVTVSS	high polyreactivity
QVQLVESGGGLVQAGGSLRLSCAASGSIFVSYAMGWYRQAPGKERELVAVISYSGVSTYYADSVKGRFTISRDNAKNTVYLQMYSLKPEDTAVYYCATRQYGTRHILKYNYWGQGTQVTVSS	low polyreactivity
QVQLVESGGGLVQAGGSLRLSCAASGSIFVSYTMGWYRQAPGKERELVAAITRSGGSTYYADSVKGRFTISRDNAKNTVYLQMNSLKPEDTAVYYCARVSRRGPGYTTLYSRYDYWGQVTQVTVSS	low polyreactivity
QVQLVESGGGLVQAGGSLRLSCAASGSIFVTYAMGWYRQAPGKERDLVATITNVGRTNYADSVKGRFTISRDNAKNTVYLQMNSLKPEDTAVYYCNADGAPGYPGAYDYWGQGTQVTVSS	low polyreactivity
QVQLVESGGGLVQAGGSLRLSCAASGSIFVTYAMGWYRQAPGKERELVASISWRGVSTRYADSVKGRFTISRDNAKNTVYLQMNSLKPEDTAVYYCAARVTSHMYYWGQGTQVTVSS	high polyreactivity
QVQLVESGGGLVQAGGSLRLSCAASGSIFVTYAMGWYRQAPWKDWELVAAISTSGGSTYADSVKGRFTISRDNAKNTVYLQMNSLKPVDTAVYYCNADDPGYAVPWYWFKYDYWGQGTQVTVSS	low polyreactivity
QVQLVESGGGLVQAGGSLRLSCAASGSIFVVNAMGWYRQAPGKERELVAAITFSGDSTYYADSVKGRFTISRDNAKNTVYLQMNSLKPEDTAVYYCAAARRSSHWFTYDYWGQGTQVTVSS	high polyreactivity
QVQLVESGGGLVQAGGSLRLSCAASGSIFVVYAMGWYRQAPGKEREMVAVISNGGTTNYADSVKGRFTISRDNAKNTVYLQMNSLKPEDTAVYYCAKASSRRYWTIRDGDYWGQGTQVTVSS	low polyreactivity
QVQLVESGGGLVQAGGSLRLSCAASGSIFVWNALGWYRQAPGTERELVAAISYTDGSTYYADSVKGRFTISRDNATNTVYFQMNSLKPEVTAVYYCNAYPASRGPGNPLDDYWGQGTQVTVSS	low polyreactivity
